In one assay the target is T1, biotinylated human CD28 (human, UniProt P10747 19-152, limits assumed, biotinylated (site not stated)).
T1 construct: also called Human CD28-Biotin
As to the kind of experiment: ELISA, biotinylated antigen captured on neutravidin plates, HRP secondary antibody. On the procedure:
(§1) The polypeptide complex molecules were evaluated for their ability to bind human PDL1 or CD28 in a standard enzyme linked immunosorbent assay (ELISA) format. […] Polypeptide complex molecules diluted in buffer were then added to the antigen coated plates. Bound polypeptide complex was detected using a standard horse radish peroxidase conjugate secondary antibody.
(In general: In an ELISA, binding on a coated surface is turned into a signal by an enzyme label.)

The target in a further assay is T2, biotinylated human PD-L1 (human, UniProt Q9NZQ7 19-238, limits assumed, biotinylated (site not stated)).
T2 construct: also called Human PDL1-biotin
The description is as above. As to the method:
as §1

B1: Ab-6 (bispecific antibody)
light: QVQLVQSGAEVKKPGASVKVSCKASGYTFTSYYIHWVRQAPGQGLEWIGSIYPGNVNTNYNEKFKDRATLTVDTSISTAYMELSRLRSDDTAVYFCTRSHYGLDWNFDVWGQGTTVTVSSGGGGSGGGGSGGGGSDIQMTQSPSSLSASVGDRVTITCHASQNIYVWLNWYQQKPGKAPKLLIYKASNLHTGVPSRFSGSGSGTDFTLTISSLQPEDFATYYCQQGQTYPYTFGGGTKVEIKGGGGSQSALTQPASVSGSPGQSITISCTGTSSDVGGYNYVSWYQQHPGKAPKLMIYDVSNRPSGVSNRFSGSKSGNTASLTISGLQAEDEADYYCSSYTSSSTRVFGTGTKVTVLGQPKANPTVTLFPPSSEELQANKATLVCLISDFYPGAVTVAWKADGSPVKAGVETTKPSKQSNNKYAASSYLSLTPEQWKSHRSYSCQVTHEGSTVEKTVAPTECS
heavy: EVQLLESGGGLVQPGGSLRLSCAASGFTFSSYIMMWVRQAPGKGLEWVSSIYPSGGITFYADTVKGRFTISRDNSKNTLYLQMNSLRAEDTAVYYCARIKLGTVTTVDYWGQGTLVTVSSASTKGPSVFPLAPSSKSTSGGTAALGCLVKDYFPEPVTVSWNSGALTSGVHTFPAVLQSSGLYSLSSVVTVPSSSLGTQTYICNVNHKPSNTKVDKKVEPKSC
notes: Anti-CD28 scFv fused to the light chain of anti-PD-L1 Fab 3; no Fc
Turning to B1, the EC50 is 1.89 nM in the assay with biotinylated human CD28 and 0.28 nM with biotinylated human PD-L1.

B2: Ab-5 (bispecific antibody)
light: QSALTQPASVSGSPGQSITISCTGTSSDVGGYNYVSWYQQHPGKAPKLMIYDVSNRPSGVSNRFSGSKSGNTASLTISGLQAEDEADYYCSSYTSSSTRVFGTGTKVTVLGQPKANPTVTLFPPSSEELQANKATLVCLISDFYPGAVTVAWKADGSPVKAGVETTKPSKQSNNKYAASSYLSLTPEQWKSHRSYSCQVTHEGSTVEKTVAPTECS
heavy: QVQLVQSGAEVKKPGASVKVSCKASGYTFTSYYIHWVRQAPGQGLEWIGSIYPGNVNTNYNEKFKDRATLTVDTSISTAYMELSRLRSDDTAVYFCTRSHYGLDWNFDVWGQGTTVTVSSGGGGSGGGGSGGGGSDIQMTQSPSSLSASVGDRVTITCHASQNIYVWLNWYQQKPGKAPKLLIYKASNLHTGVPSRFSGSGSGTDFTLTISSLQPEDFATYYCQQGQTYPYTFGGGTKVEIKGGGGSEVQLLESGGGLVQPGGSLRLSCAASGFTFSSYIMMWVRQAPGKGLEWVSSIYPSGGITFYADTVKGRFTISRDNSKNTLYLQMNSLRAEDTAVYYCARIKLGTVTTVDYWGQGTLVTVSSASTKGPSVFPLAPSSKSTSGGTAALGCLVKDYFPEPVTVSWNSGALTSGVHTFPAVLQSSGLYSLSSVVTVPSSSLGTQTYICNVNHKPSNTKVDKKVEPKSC
notes: Anti-CD28 scFv fused to the heavy chain of anti-PD-L1 Fab 3; no Fc
Regarding B2, the EC50 with biotinylated human CD28 amounted to 0.91 nM; with biotinylated human PD-L1 it was 0.11 nM.

In general, EC50 refers to the midpoint of the concentration-response curve. Low readings indicate an effect from little substance, high ones a need for much substance.
